Patent US20050084868A1 (published 2005)
Changes are numbered by the printed parent chain.

T1: carcinoembryonic antigen (UniProt P06731 35-685)
T1 construct: Bought reagent (Biodesign); also called CEA
T1 sequence: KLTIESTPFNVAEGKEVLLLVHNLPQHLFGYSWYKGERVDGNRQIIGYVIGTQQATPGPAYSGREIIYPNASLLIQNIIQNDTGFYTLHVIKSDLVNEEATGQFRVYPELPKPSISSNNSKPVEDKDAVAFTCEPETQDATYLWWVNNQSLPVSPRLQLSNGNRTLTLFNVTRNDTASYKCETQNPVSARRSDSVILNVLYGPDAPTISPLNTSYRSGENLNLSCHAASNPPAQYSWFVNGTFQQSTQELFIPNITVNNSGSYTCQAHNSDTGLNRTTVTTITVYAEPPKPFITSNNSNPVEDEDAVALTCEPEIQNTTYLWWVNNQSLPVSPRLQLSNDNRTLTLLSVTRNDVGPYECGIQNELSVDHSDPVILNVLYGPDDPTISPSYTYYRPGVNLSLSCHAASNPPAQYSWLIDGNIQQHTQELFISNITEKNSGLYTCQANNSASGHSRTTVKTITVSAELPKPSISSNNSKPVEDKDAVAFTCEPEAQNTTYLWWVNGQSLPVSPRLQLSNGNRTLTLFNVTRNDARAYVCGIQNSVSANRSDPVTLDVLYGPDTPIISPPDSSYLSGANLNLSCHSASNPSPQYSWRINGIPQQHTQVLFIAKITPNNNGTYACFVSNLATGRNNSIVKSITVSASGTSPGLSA

B1: NA05.9 (scFv)
chain: QVQLQQSGAELVRPGTSVKLSCTASGFNIKDSYMHWVRQGPGQGLEWIGWIDPENGDTEYAPKFQGKATFTTDTSSNTAYLQLSSLTSEDTAVYYCNEGTPTGPYYFDYWGQGTTVTVSSGGGGSGGGGSGGGGSQNVLTQSPAIVSASPGEKVTITCSASSSVSYMHWFQQKPGTSPKLVIYSTSNLASGVPARFSGSGSGTSYSLTISRMEAEDAATYYCQQRSSYPLTFGGGTKLELKRAATLVSEKQLAEVVANTITPLMKAQSVPGMAVAVIYQGKPHYYTFGKADIAANKPVTPQTLFELGSISKTFTGVLGGDAIARGEISLDDAVTRYWPQLTGKQWQGIRMLDLATYTAGGLPLQVPDEVTDNASLLRFYQNWQPQWKPGTTRLYANASIGLFGALAVKPSGMPYEQAMTTRVLKPLKLDHTWINVPKAEEAHYAWGYRDGKAVRVSPGMLDAQAYGVKTNVQDMANWVMANMAPENVADASLKQGIALAQSRYWRIGSMYQGLGWEMLNWPVEANTVVETSFGNVALAPLPVAEVNPPAPPVKASWVHKTGSTGGFGSYVAFIPEKQIGIVMLANTSYPNPARVEAAYHILEALQ
notes: Variant of the CAB1 scFv-BLA fusion, tested as crude lysate; Positions are numbered along the whole CAB1 fusion (pME27)
B2: NA05.12 (scFv)
chain: B1 chain with G42E, Q136E, V181W, G234A
notes: as for B1
B3: NA05.15 (scFv)
chain: B1 chain with Q3K, P14S, V37L, G42E, Q136E, F170Y, V181W, A194D, G234A
notes: as for B1

Each binder was assayed against T1, carcinoembryonic antigen (assay: plate assay: CEA coated on wells, culture lysate added, bound fusion read by BLA activity on nitrocefin).

Binder	binding result
B1	binds
B2	binds
B3	binds
